The values below come from the DeepSol protein solubility set.

The nature of this data set: soluble on expression in E. coli; label from the status in PepcDB or PDB records.
As to “MMSGAVEPVSVIFPQSTSSGVEVLYQQFSFGRYFNQIAAGVITGLIQAHQHSGHGPLRILEVGGGTGGTTAWLLPELRNVADVRYCFTDISALFSRRAEDKFSEYDFVEYAQFDLQKPASEQGFQAGHYDLIVAANVIHATQHVGQTLHNLRPLLKPGGALLMREITRPMRLFDFVFGPLVLPLHDEQARGGELFLSTAHWQQQCLESGFERLDWLP”, the “soluble on expression in E. coli” value is listed as “not soluble”.

Consider “MKLEDLPKYYSPKSPGLTDASASTSKDALSITDVMAAQGMTQNRAEMGFSAFLGKMGISMNDRARATELLADYALSRCDRVAALRKLPAEIKPVVMRIMASYAFEDYARSAASKKQCPCCYGEKFIESVVFTNKVQYPDGKPPVWAKCTKGVYPSYWEEWKKVREVVKVACPECGGKGEVSTACKDCRGRGVAIHREESVKRGMPVIRDCQRCGGRGYERLPSTEVFNAICEVTNQITRASWEKTVKKFYDALVTRFDIEEAWAERQLKKVTR”, for which the “soluble on expression in E. coli” value was “not soluble”.

With “MSLNKKIILLADDDRDDIEMFCEALEMVNENVICECAENGDQAWRMLNDNNEKPQLIFLDINMPIMNGWECLKLIKKDENYQDIPVIMISTSSHKNDMETASKLGALGYFVKPNDFNDLKSMLKIITSNEGTDEGHHHHHH”, the “soluble on expression in E. coli” value is on record as “soluble”.

Take “MWPDNRIARDAHYLYRYDRHGRLTEKTDLIPEGVIRTDDERTHRYHYDSQHRLVHYTRTQYAEPLVESRYLYDPLGRRVAKRVWRRERDLTGWMSLSRKPQVTWYGWDGDRLTTIQNDRTRIQTIYQPGSFTPLIRVETATGELAKTQRRSLADTLQQSGGEDGGSVVFPPVLVQMLDRLESEILADRVSEESRRWLASCGLTVEQMQNQMDPVYTPARKIHLYHCDHRGLPLALVSTEGATEWCAEYDEWGNLLNEENPHQLQQLIRLPGQQYDEESGLYYNRHRYYDPLQGRYITQDPIGLKGGWNFYQYPLNPVQYIDSMGLASKYGHLNNGGYGARPNKPPTPDPSKLPDIAKQLRLPYPIDQASSAPNVFKTFFRALSPYDYTLYCRKWVKPNLTCTPQDDSQYPGMDTKTASDYLPQTNWPTTQLPPGYTCAEPYLFPDINKPDGPATAGIDDLGEILAKMKQRTSRGIRKLEHHHHHH”: the “soluble on expression in E. coli” value is listed as “not soluble”.

Take “MGPVFVVGQIDEMVPHPDSDHLNICQVNIGDKKVQIVAGAPNASPGLKTIVALPGAMMPSGALIFPGKLRGEDSYGMMCSPRELALPNAPQKRGIIELDDSAVVGEALEHHHHHH”: the “soluble on expression in E. coli” value is “not soluble”.

Turning to “MSLAQDVVVGVSWSNFQEERWKTDEAAIKAELESKGAKYISADAQSSSAKQLSDVESLIAQGATALIILAQDAQAIGPAVQAAADEGIPVVGYDRLIEDSRAFYLTFDNVEVGRMQARAVLEAAPSGRYVMIKGSPTDPNADFLRGGQQEVLQAAIDKGDITIVGEAYTDGWLPANAQRNMEQILTATDNGVDAVVASNDGTAGGVVAALTAQGMEGLPVSGQDGDHAALNRVAKGTQTVSVWKDARDLGRAAARIAVSLAEGTQMNAIGGADDWTSPGGTKMNAMFLEPLPITKDNLSVVVDAGWITQETLCQGVTNGPAPCNEGHHHHHH”, the “soluble on expression in E. coli” value is listed as “soluble”.

As for “AHHHHHHGSKKFRFFVSGMPGVGKTTLAKRIADEIKREGFKVGGIITQEIRSGARRSGFRVIALDTGEIGRLAYVGQGYPRLGRYVIDVESFEKVAIPAISRALREGDLIVIDEIGPMEFKSNEFLKALGLVLRSEKPLLATVHRRFVERYRPLGEYYWLTPENREAVFSEILVKIKELLRENENAGNKAQD”, the “soluble on expression in E. coli” value is given as “not soluble”.

As to “MRVIFMRQVTKSKKIKILPYPEWLVKAGMSKGIDHDRQHLGIILAAGEMIKVRQVNAEYKEKLKLYLLNDNKNTQRSISFNTDWIELSVDAISVPFINTPYSDGIIPEIVFEYPDTSKLLPVYEKGEDESIFFESWDKQNAEFGVVESEYVIILIPEVSKDRLKSFSTSGGIDTVLGFYQDIFSFNNSLAGLSFEPQRYSDGNTRNRYFAKADKGGGGAAYYSNNWIASSSGSINTFWLSPNATNWGCLHEIAHGYQGGFIDDKYFSTREVWNNIYAACYQDVMLGAEKFNKGWLYNFGKQKEVEKSILNNINNGKEVNAWGERSKLYFIMLMLEKAGVNCFTHFNQIYRERKNTDQSVGSVLDMLSNSFATVENRVDVTLFLQMVGGHISKNQYQRNLFSHAKAVYPLNQLLQGDELTAVKKTLDLNSELSLVDVDSIEFTDIKSNLTLQFSIDDFAQIYGEELLILNGDNYVYNQSIMDKKQTLYNLPVGAYTLRIPTGRNKKYAPQINYLIVKNEDSQTQVDFVHRIGSPIVSQKISLQGLNDYTFATIFFDQENDTVSVDITKTKPHYHFPGMYARIRIKDKDNNELLNEVITGTNQSLSKNDFPLSSCYVIDIFHKEPGRVKLTPAYKGVIDNKSSYNEFIITPYGLQNIKLNNDPKVFLLENIKSAAEMLRSHPIMWHANFSEAKDNIYLAIDIFPSPQKEGLLEQYADCISSYYEKPNEDLGNAFSFIFKGINDREFLTTKLNLVTKKLEVKIVSGTPHSGFKRTYAVLRYFNADGNELLNLDIIGSKKQAGQEWVFPISGYGGEKLYLQHVEPKNRLVITNIMQGIRLSSRTSIQTYEIESLGLSRCT”, the “soluble on expression in E. coli” value was “not soluble”.

“MWRNSEERENRTSGRSQGSYQEIIGRTWIFRGAHRGRVNKKNIVWHELIGLKVRVVNSTHPGYVGIEGYVIDETRNMLVIAGENKVWKVPKDVCIFEFETWDGTKIKISGEKLVGRPEMRLKKRWRK”: the “soluble on expression in E. coli” value is reported as “soluble”.

For the sequence “MGSDKIHHHHHHMAPRGNQMLGNAHFRKHWHKRIKTWFDQPARKLRRRQNRQAKAVEIAPRPVAGLLRSVVRCPQKRYNTKTRLGRGFSLQELKAAGISQAQARTIGIAVDVRRTNKTAEGLKANADRLKEYKAKLILFPKKASAPKKGDSSAEELKVAAQLRGDVLPLSHTITFDEPRQVTDAERKVEIFRLLRKERADKKYRGKREKRAREAAEENK”, the “soluble on expression in E. coli” value is “not soluble”.

Consider “MAHHHHHHMAYPYNAYLGYTQPPTQYGQPPVVAGAHGHLPVTTPLPYNAQSAYGGAQPP”, for which the “soluble on expression in E. coli” value is “not soluble”.

On to “MSDSASNTENSIQIEIFPSRILSPETAQKLLVELSQVDGILRVMIQGNRLPEKVGYGPGTGEKVEHPLRKPIQIGGQVIELRVSVGRIRLEVLNAEVKENVRAVCEKMLPFSFEFREGHFLRRKPTVTDYAKLGPEADPRLLGMVDPKAKINQLVFILEHHHHHH”, for which the “soluble on expression in E. coli” value is on record as “not soluble”.

For the sequence GSLHRVPLRRHPSLKKKLRARSQLSEFWKSHNLDM, the “soluble on expression in E. coli” value was “soluble”.

Consider “MGSDKIHHHHHHEDFLQKDPPSSPSQSVFWQKKSDFESALAGTYSVMYSGVFSQIMPCLDGLTDNAIVQHSEGTYGWAKTIAQGDLTPNQGGFVTDIYGNCYKGIARVHILMEQLDQYTGSDISADEKKFMLAQCKALRGYFYSWLYQCYKEVPVVTQSLDLNTMYQPKATRAEVLNRVMTDYDEAISELPDKLYSDSQTSGRFTVSAVKALKARILLFDAYDSNGKAISSKMEEVLTLLQSIKGYSLAARVRDNFISEKQLASPEIMFSVRFLRPNLTHSMDLYYGAWAVLDPTRNMVDAFECTDGKPWGESPLTVRPDESILYGNDDALKKAERAKMFMNRDRRLYESVNHSMMANFVDDGFKDEEVQVNESNNKGPTGFSALKYVQPTDVTPGYSTVSDADIVVLRYAHVLLMIAEAENEAHGATTTALNAINEVRTRSGQPAIEAGISQDDLRERIRNEWRIETCFEGLRYFQLKRWKLMDKRVNGVEDPAYPGYIKVYKPAFEFFPIPQSEIDKAGGVLKQDPAYE”, for which the “soluble on expression in E. coli” value was “not soluble”.

For “KRKFACVECRQQKSKCDAHERAPEPCTKCAKKNVPCILKRDFRRTYKRARNEAIEKRFKELTRTLTNLTSDE”, the “soluble on expression in E. coli” value is “soluble”.

For “MGSDKIHHHHHHMAIRAKTNNLIQIRPLTGRRLANSEHNRQEMKNGATVLTSKPQRLVFELTNACNLNCLMCGRNSATFELTRFNSEWFKKFEPIMSDIEEVTLMGWGEPTIHPQFKEMLQYLHERGIRKYFCTNGMRLDVLKDAIFDYEVDVFAVSMDGADAKTNEFLRRGLNYQKVIEGLKAITNEKALRGLNFPHINFVMTMMKSNIRQLPDMVDLAAELGLNEVKGVFLTAFSENLLEETLFDDMDLVRYCFGQAEERAAKLGILLKLPHQRGEDPAGDAAHKPCFTAWRDFFLGSDGYVRACMSSPEKLFHIDQYPDFESMWNSREYQEWRAQVNVPGKMCPSCGRCYQSSFANWNKEHAFIQIDTEFSPKWEK”, the “soluble on expression in E. coli” value is reported as “not soluble”.
